Reference: PMC10757996

Tests used:
[1] = molecular target: Arginylglycylaspartic acid (RGD) peptide grafted on poly-L-lysine-graft-poly(ethylene glycol) (PLL-g-PEG/PEG-RGD); test: SPR; Goos-Hänchen lateral position shift read-out on a silver-GST plasmonic substrate; PLL-PEG-RGD immobilised on the GST layer through MPTES; 10 μg/mL integrin proteoliposomes flowed over; running buffer 1:10 dilution of PBS; lowest Mn2+ concentration of the series (1 nM); exponential fits of association and dissociation
[2] = molecular target: Arginylglycylaspartic acid (RGD) peptide grafted on poly-L-lysine-graft-poly(ethylene glycol) (PLL-g-PEG/PEG-RGD); test: SPR; Goos-Hänchen lateral position shift read-out on a silver-GST plasmonic substrate; PLL-PEG-RGD immobilised on the GST layer through MPTES; 10 μg/mL integrin proteoliposomes flowed over; running buffer 1:10 dilution of PBS; highest Mn2+ concentration of the series (1 mM); exponential fits of association and dissociation

kobs [1]: 0.101 min⁻¹
koff [1]: 0.00957 s⁻¹
kobs [2]: 0.146 min⁻¹
koff [2]: 0.00448 s⁻¹
Substance: αIIbβ3 integrin reconstituted into liposomes (integrin-embedded proteoliposomes) (from UniProt P08514 32-1039; P05106 27-788) (complex)
